From patent US20240270839A1
Positions count from the first letter of the chain named.

B1: ch99H8 (antibody, V domains shown)
VH: QVQLQQSGPELVKPGASVKLSCKASGYSFTNFDINWVKQRPGQGLQWIGRLYPRDGTTTYNEKFKGKASLTVDTSSTTSYMDLHSLTSEDSAVYFCVRGNYGNSFAYWGQGTLVTVSA
VL: DIVMTQSPSSLTVTAREKVIMNCKSSQSLFNSGNQKNYLTWYQQKPGQSPKLLIYWASTRQSGVPDRFTGSGSGTDFTLTISTVQAEDLAVYFCQNGFSFPYTFGGGTKLEMN
B2: hu22E12.H1L2 (antibody, V domains shown)
VH: QVQLVQSGAEVKKPGASVKVSCKASGYTFTNWVHWVRQAPGQGLEWMGEINPTNARSNYNEKFKKRVTMTRDTSTSTVYMELSSLRSEDTAVYYCARIYYGNSFAHWGQGTLVTVSS
VL: DIVMTQSPDSLAVSLGERATINCKSSQSLLNAGNQKNYLTWYQQKPGQPPKLLIYWSSTRESGVPDRFSGSGSGTDFTLTISSLQAEDVAVYHCQNNYYYPLTFGGGTKLEIK
B3: ch97A9 (antibody, V domains shown)
VH: QVQLQQSGPELVKPGASMKLSCKASGYSFTRNDINWVKQRPGQGLEWIGLSYPRDGTTQYNGKFKGKATLTVDTSSSTAYMELRSLTSEDSAVYFCARGYYGNSFAYWGQGTLVTVSA
VL: DIVMTQSPSSLTVTAGEKVTMSCKSSQSLLNSGNQKNYLTWYQQKPGQPPKLLIYWASTRESGVPDRFTGSGSGTYFTLTISSVQAEDLAVYFCQNDYYFPYTFGGGTKLEIK
B4: hu35B4.H1L2 (antibody, V domains shown)
VH: EVQLLESGGGLVQPGGSLRLSCAASGFTLSSYALSWVRQAPGKGLEWVSYISNLGGSTFYPDTVKGRFTISRDNSKNTLYLQMNSLRAEDTAVYYCAKHLYNYDAFASWGQGTLVTVSS
VL: DIQLTQSPSFLSASVGDRVTITCRASSSVNYIHWYQQKPGKAPKALIYATSNLASGVPSRFSGSGSGTEYTLTISSLQPEDFATYYCQQWNSNPLTFGQGTKLEIK
B5: 97A9 (antibody, V domains shown)
VH: B3 VH
VL: B3 VL
B6: 22E12 (antibody, V domains shown)
VH: QVQLQQPGTELVKTGTSVKLSCKASGYTFTNWVHWVIQRPGQGLEWIGEINPTNGRSNYNEKFKKKATLTLDRSSTTAYMQLSSLTSEDSAVYFCAGIYYGNSFAHWGQGTLVTVSA
VL: B3 VL with M21L, A57S, Y76D, F93H, D97N, F100Y, Y102L, G106A, I112L
B7: 35B4 (antibody, V domains shown)
VH: EAKLVESGGDFMQPGGSLKLSCAASGFTLSSYALSWVRQTPEKRLEWVAYISNLGGSTFYPDTVKGRFTISRDNARNTLFLQMSSLQSEDTAIYYCATHLYNYDAFASWGQGTLVTVSA
VL: QIVLSQSPAILSASPGEKVTMTCRASSSVNYIHWYQQKPGSSPKAWIYATSNLASGVPTRFSGSGSGTSYSLTIDRVEAEDAATYYCQQWNSNPLTFGAGTKLELK
B8: 33G12 (antibody, V domains shown)
VH: EVKLVESGGGLVQPGGSLKLSCAASGFTFSRYAMSWVRQTPEKRLEWVAYISIGGTTYYPDTIKGRFTISRDNAKNTLYLQMSSLKSEDTAMYYCTRHYYGHDVMDYWGQGTSVTVSS
VL: B7 VL with A9T, S26T, N30S, I32M, Y35F, A45P, T59A, D75S, N91S, S92R
B9: 99H8 (antibody, V domains shown)
VH: B1 VH
VL: B1 VL

Biological target: recombinant 6xHis tagged human CLDN18.2 (human)
Assay: SPR (Biacore T200), His tagged CLDN18.2 amine-coupled on CM5, antibody as analyte, 1:1 fit

| Kd | koff | kon | Binder |
| --- | --- | --- | --- |
| 1.75 nM | 0.000355 s⁻¹ | 203000 M⁻¹ s⁻¹ | B1 |
| 0.26 nM | 0.000202 s⁻¹ | 778000 M⁻¹ s⁻¹ | B2 |
| 1.15 nM | 0.000489 s⁻¹ | 425000 M⁻¹ s⁻¹ | B3 |
| 1.57 nM | 0.00035 s⁻¹ | 222000 M⁻¹ s⁻¹ | B4 |

Biological target: recombinant 6xHis tagged human CLDN18.2 (human)
Assay: SPR (Biacore); same values as Table 30, where the antibody is hu35B4.H1L2

| Kd | Binder |
| --- | --- |
| 1.57 nM | B4 |

Biological target: recombinant 6xHis tagged human CLDN18.2 (human)
Assay: SPR (Biacore); same values as Table 30, where the antibody is hu22E12.H1L2

| Kd | Binder |
| --- | --- |
| 0.26 nM | B2 |

Biological target: recombinant 6xHis tagged human CLDN18.2 (human)
Assay: SPR (Biacore); same values as Table 30, where the antibody is ch99H8

| Kd | Binder |
| --- | --- |
| 1.75 nM | B1 |

Biological target: recombinant 6xHis tagged human CLDN18.2 (human)
Assay: SPR (Biacore); same values as Table 30, where the antibody is ch97A9

| Kd | Binder |
| --- | --- |
| 1.15 nM | B3 |

Biological target: biotin labeled hCLDN18.2 (human)
Assay: competitive ELISA: excess antibody plus biotin labeled hCLDN18.2 on coated IMAB362; competitor IMAB362

| Compete with IMAB362 (%) | Binder |
| --- | --- |
| 92% | B5 |
| 49% | B6 |
| 81% | B7 |
| 87% | B8 |

Biological target: human CLDN18.2 as used in the Octet assay (human)
Assay: Octet (BLI); format not described

| Kd | Binder |
| --- | --- |
| 2 nM | B9 |
| 2.2 nM | B5 |
| < 0.001 nM | B6 |
| 3.3 nM | B7 |
| 6.2 nM | B8 |

Biological target: mouse CLDN18.2 (mCLDN18.2), expressed on HEK293 cells (mouse) (UniProt P56857)
Assay: FACS, HEK293/mCLDN18.2 cells

| EC50 | Binder |
| --- | --- |
| 3.5 nM | B9 |
| 1.4 nM | B5 |
| 0.9 nM | B6 |
| 1.9 nM | B7 |
| 1.7 nM | B8 |
